Results on 5 molecules are retold here after patent publication US20140221283A1 (INDIANA UNIVERSITY RESEARCH AND TECHNOLOGY, published 2014).

*1 amine or outer side, *2 acyl side, *3 side chain or, on linkers, in order; H or OH if unused. Where no end group is shown, it is not given here. Side-chain parts run from the residue outwards. [ ]: non-standard residue; d: D form. The star is where a group is joined. γGlu = O=C(O)[C@H](CCC(=O)[*:2])N[*:1]; Palmitoyl = CCCCCCCCCCCCCCCC(=O)*; Met(O) = CS(=O)CC[C@H](N)C(=O)O; Aib = CC(C)(N)C(=O)O

T1: GIP receptor (assay by the procedure of Example 3)
T1 sequence (P48546 whole entry, species assumed, looked up): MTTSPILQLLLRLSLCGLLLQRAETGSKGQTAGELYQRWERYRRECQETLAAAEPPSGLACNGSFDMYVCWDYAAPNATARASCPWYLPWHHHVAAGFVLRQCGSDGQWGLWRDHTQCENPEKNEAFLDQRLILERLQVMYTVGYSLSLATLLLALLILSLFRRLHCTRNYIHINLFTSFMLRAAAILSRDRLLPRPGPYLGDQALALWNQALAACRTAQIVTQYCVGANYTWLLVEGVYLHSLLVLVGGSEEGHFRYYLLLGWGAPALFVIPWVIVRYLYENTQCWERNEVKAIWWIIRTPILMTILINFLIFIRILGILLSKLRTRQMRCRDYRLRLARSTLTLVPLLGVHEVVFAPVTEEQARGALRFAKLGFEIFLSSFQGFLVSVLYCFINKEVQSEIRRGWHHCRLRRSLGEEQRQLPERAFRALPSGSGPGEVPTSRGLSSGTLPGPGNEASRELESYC

B1: peptide of SEQ ID NO: 16 (peptide)
peptide: H[Aib]QGTFTSDK([γGlu-γGlu-Palmitoyl])SKYLD[Aib]RAAQDFVQWLLDTKQ-OH
modifications: N-terminus assumed
SMILES: CCCCCCCCCCCCCCCC(=O)N[C@@H](CCC(=O)N[C@@H](CCC(=O)NCCCC[C@H](NC(=O)[C@H](CC(=O)O)NC(=O)[C@H](CO)NC(=O)[C@@H](NC(=O)[C@H](Cc1ccccc1)NC(=O)[C@@H](NC(=O)CNC(=O)[C@H](CCC(N)=O)NC(=O)C(C)(C)NC(=O)[C@@H](N)Cc1c[nH]cn1)[C@@H](C)O)[C@@H](C)O)C(=O)N[C@@H](CO)C(=O)N[C@@H](CCCCN)C(=O)N[C@@H](Cc1ccc(O)cc1)C(=O)N[C@@H](CC(C)C)C(=O)N[C@@H](CC(=O)O)C(=O)NC(C)(C)C(=O)N[C@@H](CCCNC(=N)N)C(=O)N[C@@H](C)C(=O)N[C@@H](C)C(=O)N[C@@H](CCC(N)=O)C(=O)N[C@@H](CC(=O)O)C(=O)N[C@@H](Cc1ccccc1)C(=O)N[C@H](C(=O)N[C@@H](CCC(N)=O)C(=O)N[C@@H](Cc1c[nH]c2ccccc12)C(=O)N[C@@H](CC(C)C)C(=O)N[C@@H](CC(C)C)C(=O)N[C@@H](CC(=O)O)C(=O)N[C@H](C(=O)N[C@@H](CCCCN)C(=O)N[C@@H](CCC(N)=O)C(=O)O)[C@@H](C)O)C(C)C)C(=O)O)C(=O)O
B2: peptide of SEQ ID NO: 12 (peptide)
peptide: H[Aib]QGTFTSDK([γGlu-γGlu-Palmitoyl])SKYLD[Aib]RAAQDFVQWLMDTK[γGlu]-NH2
B3: peptide of SEQ ID NO: 13 (peptide)
peptide: H[Aib]QGTFTSDYSKYLDERRA[Aib]EFVC(40K‑TE PEG)WLLDTK[γGlu]-NH2
B4: peptide of SEQ ID NO: 14 (peptide)
peptide: HSQGTFTSDKSKYLDERAAQDFVQWLLDTKX
modifications: lower-case 's' at position 2 (taken as D-Ser; the table does not explain it); Lys at position 10 acylated as K(γGlu-C16); C-terminal γGlu; C-terminal amide
B5: peptide of SEQ ID NO: 15 (peptide)
peptide: H[Aib]QGTFTSDK([γGlu-γGlu-Palmitoyl])SKYLD[Aib]RAAQDFVQWL[Met(O)]DTKQ-OH
modifications: not fully specified; printed as HaibQGTFTSDK(γGlu-γGlu-C16)SKYLDaibRAAQDFVQWLMornDTKQ-acid

In the assay the target is T1, GIP receptor (assay by the procedure of …). As to the kind of experiment: cell-based or functional assay.
Consider B1, for which the “EC50 (nM) at GIP receptor (procedure of Example 3)” value (“EC50 (nM) at GIP receptor” below) is 1.04 nM. On to B2, for which the “EC50 (nM) at GIP receptor” value is 12.8 nM. The same measure for B3: 140 nM. Consider B4, for which the “EC50 (nM) at GIP receptor” value is 976 nM.

Take B5: the “EC50 (nM) at GIP receptor” value came to 1.9 nM.
